Paper PMC10272122 (2023)

Molecular target: PDF-2180 RBD-hFc (PDF-2180)
Test: BLI

B1: ACE2 from Pipistrellus pipistrellus (Ppip ACE2) (receptor)
chain: TTEEEARDFLDKFNSEAENLSHESALASWDYNTNITDENAQKMNEADSKWSDFYKEQSKRAQAFPLQEIQNLTIKLQLQILQQNGSSVLTAEKSKRLSTILTTMSTIYSTGKVCNPNNPQQCFTLSGLEDIMEKSKDYHQRLWVWEGWRSEVGKQLRPLYEEYVVLKNEMARGNNYEDYGDYWRGDYETEGEDGYNYSRNQLMEDVDRIFLEIKPLYEQLHAYVRAKLMNAYPSRISPTGCLPAHLLGDMWGRFWTNLYNLTVPFEQKQNIDVTETMKKQSWDAEKIFKEAEKFYLSVGLYSMTQGFWNNSMLTEPSDGRQVVCHPTAWDLGEDDFRIKMCTKVTMDDFLTAHHEMGHIQYDMAYAKQPYLLRNGANEGFHEAVGEVMSLSVATPKHLKGMGLLPSDFSEDNETEINFLLKQALNIVGTLPFTYMLEKWRWMVFEGKIPKEQWMEKWWEMKREIVGVVEPLPHDETYCDPASLFHVANDYSFIRYFTRTILEFQFQEALCKIAKHEGPLHKCDISNSTEAGKKLKDMLELGKSKPWTYALNQIARTKEMDAKPLLNYFEPLFSWLKKQNGNSVGWSADWSPYSEQSLKVRISLISALGEKAYEWNDNEMYLFRSSVAYAMRVYFSKMNKTIPFTAEDVRVSDEKKRVSFKFFVTSPTNISDIIPRSEVEDAIRMSRSRINDA
B1 showed a Kd of 0.417 nM and a koff of 5.54e-05 s⁻¹.
